According to paper PMC8170886:

Biological target: bacteriophage P22 coat protein (bacteriophage P22) (UniProt P26747)
Assay: densitometry of SDS-PAGE of the purified particles; purified ASNase-P22 nanoreactors from different chromatograms, bands quantified with ImageJ; numbers per capsid calculated on 420 CP

ASNase-SP chimeric protein (E. coli asparaginase II fused to the bacteriophage P22 scaffold protein) (from UniProt P00805 23-348) (enzyme)
ASNase-SP tetramers per capsid of 420 CP (tetramers per capsid): 110 | monomers per capsid (monomers per capsid): 448 | percent ASNase-SP in the nanoreactor's protein (densitometry): 41.6% | percent CP in the nanoreactor's protein (densitometry): 58.4%
